Measured values as given in patent publication US20230068783A1 (TAVOTEK BIOTHERAPEUTICS HONG KONG, published 2023).
Numbering of substitutions follows the chain as printed.

T1: human IL-1α (human, UniProt P01583 113-271)
T1 construct: Purified recombinant protein
T1 sequence (looked up): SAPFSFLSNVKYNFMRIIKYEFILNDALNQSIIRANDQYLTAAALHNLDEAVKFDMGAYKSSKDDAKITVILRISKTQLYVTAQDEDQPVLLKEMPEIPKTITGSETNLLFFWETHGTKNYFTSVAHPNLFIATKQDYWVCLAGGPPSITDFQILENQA

T2: mouse IL-1β (mouse, UniProt P10749 118-269)
T2 sequence (looked up): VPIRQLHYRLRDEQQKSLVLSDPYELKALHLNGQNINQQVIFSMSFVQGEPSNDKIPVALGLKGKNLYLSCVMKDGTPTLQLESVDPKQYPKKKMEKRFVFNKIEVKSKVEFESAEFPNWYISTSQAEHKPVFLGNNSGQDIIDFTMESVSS

T3: IL-1β receptor IL-1R on the surface of HEK-Blue IL-1β cells (UniProt P14778 18-569, limits assumed)
T3 sequence (looked up): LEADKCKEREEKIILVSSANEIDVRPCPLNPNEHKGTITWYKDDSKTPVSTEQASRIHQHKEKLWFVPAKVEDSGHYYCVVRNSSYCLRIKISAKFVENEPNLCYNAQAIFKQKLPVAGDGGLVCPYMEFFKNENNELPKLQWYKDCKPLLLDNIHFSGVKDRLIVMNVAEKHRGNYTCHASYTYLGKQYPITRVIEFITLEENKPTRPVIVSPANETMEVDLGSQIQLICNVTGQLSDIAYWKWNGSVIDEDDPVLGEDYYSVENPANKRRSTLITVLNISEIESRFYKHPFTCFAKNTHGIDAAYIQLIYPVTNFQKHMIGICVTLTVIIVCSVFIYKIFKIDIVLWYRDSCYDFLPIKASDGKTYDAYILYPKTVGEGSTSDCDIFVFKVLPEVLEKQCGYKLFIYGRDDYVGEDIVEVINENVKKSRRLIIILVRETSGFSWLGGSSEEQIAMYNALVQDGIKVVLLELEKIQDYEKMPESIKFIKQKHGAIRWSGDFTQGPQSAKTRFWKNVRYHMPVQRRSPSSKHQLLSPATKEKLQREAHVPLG

B1: TAVO7376 (humanized IgG1 antibody, 304VH1 with 304VL1) (antibody, V domains shown)
VH: EVQLVESGGGLVQPGGSLRLSCAASGFTFSSFGMHWVRQAPGKGLEWVAYISIGSYTVHYADSVKGRFTISRDNAKNSLYLQMNSLRDEDTAVYYCVRDDYDVTDYTMDYWGQGTTVTVSS
VL: DIQMTQSPSSLSASVGDRVTITCKSSQSLLNSRTRKNYLAWYQQKPGKAPKLLIYWASTRESGVPSRFSGSGSGTDFTLTISSLQPEDFATYYCKQTYNFPTFGQGTKLEIKR
notes: Humanized IgG1
B2: TAVO7377 (humanized IgG1 antibody, 304VH1 with 304VL2) (antibody, V domains shown)
VH: B1 VH
VL: B1 VL with I21M, L84V, F89L
notes: Humanized IgG1
B3: mouse monoclonal anti-human IL-1β antibody TAVO304 (antibody, V domains shown)
VH: DVQLVESGGGLVQPGGSRKLSCAASGFTFSSFGMHWVRQAPEKGLEWVAYISIGSYTVHYADTVKGRFTISRDNPKNTLFLQMTSLRSEDTAMYYCVRDDYDVTDYTMDYWGQGTSVTVSS
VL: DIVMSQSPSSLAVSTGEKVTMSCKSSQSLLNSRTRKNYLAWYQQKPGQSPKLLIYWASTRESGVPDRFTGSGSGTDFTLTIGSVQAEDLAVYYCKQTYNFPTFGGGTKLEIK
notes: Mouse monoclonal antibody from hybridoma screening
B4: Rhesus monkey IL-1β (ligand, UniProt P48090 117-269, looked up)
chain: APVRSLHCTLRDAQLKSLVMSGPYELKALHLQGQDLEQQVVFSMSFVQGEESNDKIPVALGLKAKNLYLSCVLKDDKPTLQLESVDPKNYPKKKMEKRFVFNKIEINNKLEFESAQFPNWYISTSQAENMPVFLGGTRGGQDITDFTMQFVSS

Experiments:
human IL-1α = biological target: T1, human IL-1α; assay: ELISA with purified recombinant protein
Method: To evaluate the binding specificity, cytokines homologous to IL-1β such as IL-1α were evaluated for binding to humanized antibodies in ELISA-based binding assay with purified recombinant protein.

[1] = biological target: T4, recombinant human IL-1β (R&D systems) (human, UniProt P01584 117-269); assay: cell-based or functional assay
Rhesus monkey IL-1β [2] = biological target: B4; assay: cell-based or functional assay
[3] = biological target: T4, recombinant human IL-1β (R&D systems); assay: ELISA, 1 µg/ml recombinant human IL-1β coated, HRP anti-mouse secondary antibody
Method: (§1) By hybridoma screening, TAVO304 was identified as a mouse anti-human IL-1β antibody. ELISA-based binding assay was employed to evaluate TAVO304 binding to recombinant human IL-1β. In this assay, 1 μg/ml recombinant human IL-1β (R&D systems) were coated on ELISA plate. Increasing concentrations of TAVO304 antibodies were applied on the plate and their binding to the recombinant human IL-1P were detected by HRP-conjugated anti-mouse secondary antibody.

Rhesus monkey IL-1β [4] = biological target: B4; assay: ELISA, plate coated with Rhesus monkey IL-1β
Method: as §1
(§2) The binding of TAVO304 to mouse and Rhesus monkey IL-1β were also evaluated in similar ELISA assay by coating the plate with mouse and Rhesus monkey IL-1β respectively.

mouse IL-1β = biological target: T2, mouse IL-1β; assay: ELISA, plate coated with mouse IL-1β
Method: as §1, §2

[5] = biological target: T3, IL-1β receptor IL-1R on the surface of …; assay: cell-based or functional assay

Row | binding result (human IL-1α) | IC50 of blocking human IL-1β-mediated IL-6 release from MRC-5 cells [1] | IC50 of neutralizing human IL-1β driven reporter gene expression, HEK-Blue IL-1β reporter assay [1] | IC50 of neutralizing rhesus monkey IL-1β driven reporter gene expression, HEK-Blue IL-1β reporter assay (Rhesus monkey IL-1β [2]) | EC50 [3] | EC50 (Rhesus monkey IL-1β [4]) | binding result (mouse IL-1β) | fold potency against reference antibody refAb-1 in IL-1β inhibition, HEK-Blue IL-1β reporter assay [1] | EC50 of reporter gene (SEAP) expression in HEK-Blue IL-1β reporter assay [5] | Binder
1 | no binding (tested: 1 ug/mL) | ~50 ng/mL | ~0.09 µg/mL | ~0.018 µg/mL |  |  |  |  |  | B1
2 | no binding (tested: 1 ug/mL) | ~50 ng/mL | ~0.09 µg/mL | ~0.018 µg/mL |  |  |  |  |  | B2
3 |  |  | 0.12 µg/mL | 0.0036 µg/mL | 3.6 ng/mL | 0.0122 µg/mL | no binding | > 6 fold |  | B3
4 |  |  |  |  |  |  |  |  | 0.16 ng/mL | B4
